Data set [1] in a line: in vivo. As to conditions: female, cynomolgus monkey, sc, 1.5 mg/kg.
Data set [2] relates to skin at injection site. Particulars: for tolerability after SC injection: primates, single SC injection 1.5 mg/kg.
For data set [3] the following is noted: female, cynomolgus monkey, in vivo, sc, 1.5 mg/kg.
In data set [4] the test system is skin at injection site. Particulars: for tolerability after SC injection: primates, SC injection 3.0 mg/kg (apomorphine equivalents), multiple doses; for skin at the site of injection 12 hours after the third dose (day 14): weekly SC injection 3.0 mg/kg (apomorphine equivalents).
Experimental: Non-naïve female cynomolgus monkeys were used in the study. […] They were assigned to three groups with 3 animals per group.
The test articles were dosed subcutaneously (as described in Table 6) in the right shoulder on days 0 and 14 and in the left shoulder on days 7 and 21, of each monkey. […] Photographs were taken to study the severity of the reactions and observations that were recorded.
To determine if the Apo-A, Apo-B, and Apo-G conjugates induced skin reactions at a concentration of 3.0 mg/kg (as compared to the 1.5 mg/kg dose described in Examples 18 and 20), all animals were/will be monitored daily for these skin reactions. Photographs were/will be taken to study the skin reactions and observations were/will be recorded. Bases on the presence of erythema and swelling, the skin reactions were/will be recorded as none, slight, well defined, moderate and severe.
Data set [5] in a line: Pharmacokinetics of free apomorphine in plasma after single SC infusion/injection. Particulars: for dose dumping (burst effect): after single SC administration 1.5 mg/kg; for AUC0-168 / AUC0-inf / AUC0-last / Cmax / Tmax / time post-dose by which drug is completely cleared and below the limit of quantification (BLQ) / increase of Tmax as compared to apomorphine HCl / increase of t1/2z as compared to apomorphine HCl: free apomorphine, single SC 1.5 mg/kg; for AUC0-168 / AUC0-inf / AUC0-last / Cmax / Tmax / time post-dose by which drug is completely cleared and below the limit of quantification (BLQ): plasma; for AUC0-168 / AUC0-inf / AUC0-last / Cmax / Tmax: female monkeys, mean n=3; for period of sustained release of apomorphine: single SC injection 1.5 mg/kg, monkeys.

For data set [6] the following is noted: single SC injection 1.5 mg/kg; for PR (percent of released apomorphine): AUC0-last(free) relative to AUC0-last(total); for PR (percent of released apomorphine) / AUC0-168 / AUC0-inf / AUC0-last / CL/F obs / Cmax / Tmax: mean; for time by which drug is cleared and BLQ / AUC0-168 / AUC0-inf / AUC0-last / CL/F obs / Cmax / Tmax: total apomorphine, plasma.
[7] abbreviates: single SC 1.5 mg/kg, per animal.

Values joined by “and” are separate entries in the source; they are usually repeats but may differ in a detail not shown here. Equal values may be shown once. Where a name gives a salt, the structure may show the parent alone. Read-outs that look alike come from different tables or passages of the source.

These results are taken from patent US11766432B2, “Cleavable conjugates of catechol compounds and water-soluble polymers and methods of treatment using the same” (SERINA THERAPEUTICS, INC., priority 2018, dated 2023).

As usually defined, the CL/F is clearance divided by bioavailability, as obtained after extravascular dosing. What is called Cmax is the maximum level reached in the sampled fluid or tissue. The Vd/F is the volume of distribution divided by bioavailability. As usually defined, the AUC(0-t) is exposure summed from dosing to a finite time, without extrapolation to infinity. Broadly, the Tmax is the time from dosing to the highest level. In data set [1], `CN1CCc2cccc3c2[C@H]1Cc1ccc(O)c(O)c1-3` [apomorphine HCl, Apomorphine hydrochloride] showed an AUC0-inf of 90.2 ng·h/mL, a CL/F of 289 mL/min/kg, a Cmax of 10.6 ng/mL and a Vd/F of 43.6 L/kg. Moreover, in data set [1] (cynomolgus), the AUC(0-t) is 89.8 ng·h/mL, the Cmax was around 10.6 ng/mL and the Tmax is 4 h. Further, in data set [2] (female, cynomolgus monkey, in vivo, sc, 1.5 mg/kg, 15 day), the “Observations (skin reaction), Day 15” value is “Day 15: Skin appears normal”. The “time post-dose by which drug is completely cleared and below the limit of quantification (BLQ)” value in data set [3] was at most 24 h.

With “POZ10p20k[Apo(2-methylpropanoate)(4-triazolebutanoate)]10 [POZ-Apomorphine B]”, in data set [4], the “tolerability after SC injection” value is reported as “well tolerated”; the “skin at the site of injection 12 hours after the third dose (day 14)” value was “appeared normal with no sign of erythema and swelling”. Also, the “tolerability after SC injection” value in data set [2] is on record as “well tolerated”. Also, in data set [2] (setting [7]), the “Observations (skin reaction), Day 1 to Day 15” value is “Day 1 to Day 15: No erythema and swelling”; the “Observations (skin reaction), Day 15” value is “Day 15: Skin appears normal”. In data set [5], the “dose dumping (burst effect)” value is listed as “no evidence of dose dumping”, the AUC0-168 amounted to 478 ng·h/mL, the AUC0-inf came to 968 ng·h/mL and the AUC0-last came to 640 ng·h/mL. Moreover, in data set [5], the Cmax stood at 3.5 ng/mL; the Tmax turned out to be 104 h; the “time post-dose by which drug is completely cleared and below the limit of quantification (BLQ)” value is recorded as above 240 h; the “increase of Tmax as compared to apomorphine HCl” value turned out to be 26 times. Further, in data set [5], the “increase of t1/2z as compared to apomorphine HCl” value was 84.3 times and the “period of sustained release of apomorphine” value came out at 10 days. Also, in data set [6], the “PR (percent of released apomorphine)” value stood at 5.5%; the “time by which drug is cleared and BLQ” value was above 240 h; the AUC0-168 was 8317 ng·h/mL; the AUC0-inf was 16456 ng·h/mL. In data set [6], this compound yielded an AUC0-last of 11610 ng·h/mL and a CL/F obs of 1.52 mL/min/kg. For the same compound, in data set [6] (1.5 mg/kg), the Cmax is 72.6 ng/mL and 72.7 ng/mL; the Tmax amounted to 136.0 h.

For the compound “POZ10p20k[Apo(4-butanoate)(4-triazolebutanoate)]10 [POZ-Apomorphine A]”, in data set [4], the “tolerability after SC injection” value is “well tolerated”; the “skin at the site of injection 12 hours after the third dose (day 14)” value is “appeared normal with no sign of erythema and swelling”. In addition, in data set [2], the “tolerability after SC injection” value is given as “well tolerated”. Further, in data set [2] (setting [7]), the “Observations (skin reaction), Day 1 to Day 15” value is “Day 1 to Day 15: No erythema and swelling”; the “Observations (skin reaction), Day 15” value is listed as “Day 15: Skin appears normal”. Besides, in data set [5], the “dose dumping (burst effect)” value is recorded as “no evidence of dose dumping”, the AUC0-168 is 647 ng·h/mL, the AUC0-inf came out at 666 ng·h/mL and the AUC0-last is 656 ng·h/mL. In data set [5], the Cmax is 6.6 ng/mL; the Tmax is 88 h; the “time post-dose by which drug is completely cleared and below the limit of quantification (BLQ)” value is listed as at most 240 h; the “increase of Tmax as compared to apomorphine HCl” value is recorded as 22 times. In addition, in data set [5], the “increase of t1/2z as compared to apomorphine HCl” value came to 13.2 times and the “period of sustained release of apomorphine” value worked out at 5 days. In data set [6], the “PR (percent of released apomorphine)” value came to 4.8%; the “time by which drug is cleared and BLQ” value is recorded as at most 240 h; the AUC0-168 stood at 13368 ng·h/mL; the AUC0-inf was determined as 138986 ng·h/mL. Further, in data set [6], the AUC0-last is 13835 ng·h/mL, the CL/F obs is 1.82 mL/min/kg, the Cmax came to 151.3 ng/mL and the Tmax was found to be 88 h.
